What was measured:
[1] = system: HeLa Kyoto; test: melting temperature (median over replicates), in situ; higher = more thermally stable
[2] = system: HeLa Kyoto; test: solubility change mitosis vs G1/S (difference of NP-40 vs SDS log2 ratios) (log2 ratio difference); higher = more soluble in mitosis
[3] = system: HeLa Kyoto; test: solubility in G1/S (NP-40 vs SDS abundance) (log2 ratio); higher = more soluble; settings: cell cycle stage: G1/S
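Throughout, for melting temperature (median over replicates), in situ: HeLa Kyoto cells synchronized by double thymidine or nocodazole block, proteins quantified by TMT10plex mass spectrometry, three independent biological replicates.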
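Throughout, for solubility change mitosis vs G1/S (difference of NP-40 vs SDS log2 ratios): synchronized HeLa Kyoto cells (double thymidine block for G1/S, nocodazole release for mitosis), protein amounts in NP-40 versus SDS lysates quantified by mass spectrometry, three biological replicates.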
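Throughout, for solubility in G1/S (NP-40 vs SDS abundance): HeLa Kyoto cells arrested at G1/S by double thymidine block, proteins quantified by TMT10plex mass spectrometry in mild NP-40 versus SDS extracts, three biological replicates.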

Sequence | melting temperature ([1]; cell cycle stage: G1/S) [°C] | melting temperature ([1]; cell cycle stage: mitosis) [°C] | solubility change mitosis (log2) [2] | solubility in G1/S (log2) [3]
MGPPRHPQAGEIEAGGAGGGRRLQVEMSSQQFPRLGAPSTGLSQAPSQIANSGSAGLINPAATVNDESGRDSEVSAREHMSSSSSLQSREEKQEPVVVRPYPQVQMLSTHHAVASATPVAVTAPPAHLTPAVPLSFSEGLMKPPPKPTMPSRPIAPAPPSTLSLPPKVPGQVTVTMESSIPQASAIPVATISGQQGHPSNLHHIMTTNVQMSIIRSNAPGPPLHIGASHLPRGAAAAAVMSSSKVTTVLRPTSQLPNAATAQPAVQHIIHQPIQSRPPVTTSNAIPPAVVATVSATRAQSPVITTTAAHATDSALSRPTLSIQHPPSAAISIQRPAQSRDVTTRITLPSHPALGTPKQQLHTMAQKTIFSTGTPVAAATVAPILATNTIPSATTAGSVSHTQAPTSTIVTMTVPSHSSHATAVTTSNIPVAKVVPQQITHTSPRIQPDYPAERSSLIPISGHRASPNPVAMETRSDNRPSVPVQFQYFLPTYPPSAYPLAAHTYTPITSSVSTIRQYPVSAQAPNSAITAQTGVGVASTVHLNPMQLMTVDASHARHIQGIQPAPISTQGIQPAPIGTPGIQPAPLGTQGIHSATPINTQGLQPAPMGTQQPQPEGKTSAVVLADGATIVANPISNPFSAAPAATTVVQTHSQSASTNAPAQGSSPRPSILRKKPATDGAKPKSEIHVSMATPVTVSMETVSNQNNDQPTIAVPPTAQQPPPTIPTMIAAASPPSQPAVALSTIPGAVPITPPITTIAAAPPPSVTVGGSLSSVLGPPVPEIKVKEEVEPMDIMRPVSAVPPLATNTVSPSLALLANNLSMPTSDLPPGASPRKKPRKQQHVISTEEGDMMETNSTDDEKSTAKSLLVKAEKRKSPPKEYIDEEGVRYVPVRPRPPITLLRHYRNPWKAAYHHFQRYSDVRVKEEKKAMLQEIANQKGVSCRAQGWKVHLCAAQLLQLTNLEHDVYERLTNLQEGIIPKKKAATDDDLHRINELIQGNMQRCKLVMDQISEARDSMLKVLDHKDRVLKLLNKNGTVKKVSKLKRKEKV [SAP130] | 50.5 | 50 | -0.0185 | 0.147
MGSTESSEGRRVSFGVDEEERVRVLQGVRLSENVVNRMKEPSSPPPAPTSSTFGLQDGNLRAPHKESTLPRSGSSGGQQPSGMKEGVKRYEQEHAAIQDKLFQVAKREREAATKHSKASLPTGEGSISHEEQKSVRLARELESREAELRRRDTFYKEQLERIERKNAEMYKLSSEQFHEAASKMESTIKPRRVEPVCSGLQAQILHCYRDRPHEVLLCSDLVKAYQRCVSAAHKG [CHCHD6] | 54.7 | 53.2 | 0.232 | 0.215
MHRAPSPTAEQPPGGGDSARRTLQPRLKPSARAMALPRTLGELQLYRVLQRANLLSYYETFIQQGGDDVQQLCEAGEEEFLEIMALVGMATKPLHVRRLQKALREWATNPGLFSQPVPAVPVSSIPLFKISETAGTRKGSMSNGHGSPGEKAGSARSFSPKSPLELGEKLSPLPGGPGAGDPRIWPGRSTPESDVGAGGEEEAGSPPFSPPAGGGVPEGTGAGGLAAGGTGGGPDRLEPEMVRMVVESVERIFRSFPRGDAGEVTSLLKLNKKLARSVGHIFEMDDNDSQKEEEIRKYSIIYGRFDSKRREGKQLSLHELTINEAAAQFCMRDNTLLLRRVELFSLSRQVARESTYLSSLKGSRLHPEELGGPPLKKLKQEVGEQSHPEIQQPPPGPESYVPPYRPSLEEDSASLSGESLDGHLQAVGSCPRLTPPPADLPLALPAHGLWSRHILQQTLMDEGLRLARLVSHDRVGRLSPCVPAKPPLAEFEEGLLDRCPAPGPHPALVEGRRSSVKVEAEASRQ [NAB2] | – | 48.9 | -0.11 | 0.298
MHRGVGPAFRVVRKMAASGAEPQVLVQYLVLRKDLSQAPFSWPAGALVAQACHAATAALHTHRDHPHTAAYLQELGRMRKVVLEAPDETTLKELAETLQQKNIDHMLWLEQPENIATCIALRPYPKEEVGQYLKKFRLFK [PTRHD1] | 55.6 | 52.6 | 0.625 | -0.278
MISRHLQNNLMSVDPASSQAMELSDVTLIEGVGNEVMVVAGVVVLILALVLAWLSTYVADSGSNQLLGAIVSAGDTSVLHLGHVDHLVAGQGNPEPTELPHPSEGNDEKAEEAGEGRGDSTGEAGAGGGVEPSLEHLLDIQGLPKRQAGAGSSSPEAPLRSEDSTCLPPSPGLITVRLKFLNDTEELAVARPEDTVGALKSKYFPGQESQMKLIYQGRLLQDPARTLRSLNITDNCVIHCHRSPPGSAVPGPSASLAPSATEPPSLGVNVGSLMVPVFVVLLGVVWYFRINYRQFFTAPATVSLVGVTVFFSFLVFGMYGR [TMUB2] | 55 | 54 | -0.108 | 0.229
MKGSNRNKDHSAEGEGVGKRPKRKCLQWHPLLAKKLLDFSEEEEEEDEEEDIDKVQLLGADGLEQDVGETEDDESPEQRARRPMNAFLLFCKRHRSLVRQEHPRLDNRGATKILADWWAVLDPKEKQKYTDMAKEYKDAFMKANPGYKWCPTTNKPVKSPTPTVNPRKKLWAFPSDSSRDLPSPKKAKTEEMPQLNFGMADPTQMGGLSMLLLAGEHALGTPEVSSGTCRPDVSESPELRQKSPLFQFAEISSSTSHSDASTKQCQTSALFQFAEISSNTSQLGGAEPVKRCGKSALFQLAEMCLASEGMKMEESKLIKAKESDGGRIKELEKGKEEKEIKMEKTDETRLQKEAEFEKSAKENLRDSKELRNFEALQIDDIMAIKMEDPKEIRKEELEEDHKCSHFPDFSYSASSKIIISDVPSRKDHMCHPHGIMIIEDPAALNKPEKLKKKKKKSKMDRHGNDKSTPKKTCKKRQSSESDIESVIYTIEAVAKGDWGIEKLGDTPRKKVRTSSSGKGSILDAKPPKKKVKSREKKMSKEKSSDTTKESRPPDFISISASKNISGETPEGIKAEPLTPMEDALPPSLSGQAKPEDSDCHRKIETCGSRKSERSCKGALYKTLVSEGMLTSLRANVDRGKRSSGKGNSSDHEGCWNEESWTFSQSGTSGSKKFKKTKPKEDCLLGSAKLDEEFEKKFNSLPQYSPVTFDRKCVPVPRKKKKTGNVSSEPTKTSKGPFQSQKKNLFHKIVSKYKHKKEKPNVPEKGSGDKWSNKQLFLDAIHPTEAIFSEDRNTMEPVHKVKNIPSIFNTPEPTTTQEPLVGSQKRKARKTKITHLVRTADGRVSPAGGTLDDKPKEQLQRSLPKATETDCNDKCSHNTEVGETRSSTPEMPAVSAFFSLAALAEVAAMENVHRGQRSTPLTHDGQPKEMPQAPVLISCADQ [BBX] | 47.4 | 50 | 0.277 | -0.353
MKTRQNKDSMSMRSGRKKEAPGPREELRSRGRASPGGVSTSSSDGKAEKSRQTAKKARVEEASTPKVNKQGRSEEISESESEETNAPKKTKTEQELPRPQSPSDLDSLDGRSLNDDGSSDPRDIDQDNRSTSPSIYSPGSVENDSDSSSGLSQGPARPYHPPPLFPPSPQPPDSTPRQPEASFEPHPSVTPTGYHAPMEPPTSRMFQAPPGAPPPHPQLYPGGTGGVLSGPPMGPKGGGAASSVGGPNGGKQHPPPTTPISVSSSGASGAPPTKPPTTPVGGGNLPSAPPPANFPHVTPNLPPPPALRPLNNASASPPGLGAQPLPGHLPSPHAMGQGMGGLPPGPEKGPTLAPSPHSLPPASSSAPAPPMRFPYSSSSSSSAAASSSSSSSSSSASPFPASQALPSYPHSFPPPTSLSVSNQPPKYTQPSLPSQAVWSQGPPPPPPYGRLLANSNAHPGPFPPSTGAQSTAHPPVSTHHHHHQQQQQQQQQQQQQQQQQQQHHGNSGPPPPGAFPHPLEGGSSHHAHPYAMSPSLGSLRPYPPGPAHLPPPHSQVSYSQAGPNGPPVSSSSNSSSSTSQGSYPCSHPSPSQGPQGAPYPFPPVPTVTTSSATLSTVIATVASSPAGYKTASPPGPPPYGKRAPSPGAYKTATPPGYKPGSPPSFRTGTPPGYRGTSPPAGPGTFKPGSPTVGPGPLPPAGPSGLPSLPPPPAAPASGPPLSATQIKQEPAEEYETPESPVPPARSPSPPPKVVDVPSHASQSARFNKHLDRGFNSCARSDLYFVPLEGSKLAKKRADLVEKVRREAEQRAREEKEREREREREKEREREKERELERSVKLAQEGRAPVECPSLGPVPHRPPFEPGSAVATVPPYLGPDTPALRTLSEYARPHVMSPGNRNHPFYVPLGAVDPGLLGYNVPALYSSDPAAREREREARERDLRDRLKPGFEVKPSELEPLHGVPGPGLDPFPRHGGLALQPGPPGLHPFPFHPSLGPLERERLALAAGPALRPDMSYAERLAAERQHAERVAALGNDPLARLQMLNVTPHHHQHSHIHSHLHLHQQDAIHAASASVHPLIDPLASGSHLTRIPYPAGTLPNPLLPHPLHENEVLRHQLFAAPYRDLPASLSAPMSAAHQLQAMHAQSAELQRLALEQQQWLHAHHPLHSVPLPAQEDYYSHLKKESDKPL [ATN1] | 53.9 | 57 | 0.405 | 0.377
MLAYCVQDATVVDVEKRRNPSKHYVYIINVTWSDSTSQTIYRRYSKFFDLQMQLLDKFPIEGGQKDPKQRIIPFLPGKILFRRSHIRDVAVKRLKPIDEYCRALVRLPPHISQCDEVFRFFEARPEDVNPPKEDYGSSKRKSVWLSSWAESPKKDVTGADATAEPMILEQYVVVSNYKKQENSELSLQAGEVVDVIEKNESGWWFVSTSEEQGWVPATYLEAQNGTRDDSDINTSKTGEVSKRRKAHLRRLDRRWTLGGMVNRQHSREEKYVTVQPYTSQSKDEIGFEKGVTVEVIRKNLEGWWYIRYLGKEGWAPASYLKKAKDDLPTRKKNLAGPVEIIGNIMEISNLLNKKASGDKETPPAEGEGHEAPIAKKEISLPILCNASNGSAVGVPDRTVSRLAQGSPAVARIAPQRAQISSPNLRTRPPPRRESSLGFQLPKPPEPPSVEVEYYTIAEFQSCISDGISFRGGQKAEVIDKNSGGWWYVQIGEKEGWAPASYIDKRKKPNLSRRTSTLTRPKVPPPAPPSKPKEAEEGPTGASESQDSPRKLKYEEPEYDIPAFGFDSEPELSEEPVEDRASGERRPAQPHRPSPASSLQRARFKVGESSEDVALEEETIYENEGFRPYAEDTLSARGSSGDSDSPGSSSLSLTRKNSPKSGSPKSSSLLKLKAEKNAQAEMGKNHSSASFSSSITINTTCCSSSSSSSSSLSKTSGDLKPRSASDAGIRGTPKVRAKKDADANAGLTSCPRAKPSVRPKPFLNRAESQSQEKMDISTLRRQLRPTGQLRGGLKGSKSEDSELPPQTASEAPSEGSRRSSSDLITLPATTPPCPTKKEWEGPATSYMTCSAYQKVQDSEISFPAGVEVQVLEKQESGWWYVRFGELEGWAPSHYLVLDENEQPDPSGKELDTVPAKGRQNEGKSDSLEKIERRVQALNTVNQSKKATPPIPSKPPGGFGKTSGTPAVKMRNGVRQVAVRPQSVFVSPPPKDNNLSCALRRNESLTATDGLRGVRRNSSFSTARSAAAEAKGRLAERAASQGSDSPLLPAQRNSIPVSPVRPKPIEKSQFIHNNLKDVYVSIADYEGDEETAGFQEGVSMEVLERNPNGWWYCQILDGVKPFKGWVPSNYLEKKN [SH3PXD2A] | 49.5 | 49 | 0.1 | 0.0755
MLDHKDLEAEIHPLKNEERKSQENLGNPSKNEDNVKSAPPQSRLSRCRAAAFFLSLFLCLFVVFVVSFVIPCPDRPASQRMWRIDYSAAVIYDFLAVDDINGDRIQDVLFLYKNTNSSNNFSRSCVDEGFSSPCTFAAAVSGANGSTLWERPVAQDVALVECAVPQPRGSEAPSACILVGRPSSFIAVNLFTGETLWNHSSSFSGNASILSPLLQVPDVDGDGAPDLLVLTQEREEVSGHLYSGSTGHQIGLRGSLGVDGESGFLLHVTRTGAHYILFPCASSLCGCSVKGLYEKVTGSGGPFKSDPHWESMLNATTRRMLSHSSGAVRYLMHVPGNAGADVLLVGSEAFVLLDGQELTPRWTPKAAHVLRKPIFGRYKPDTLAVAVENGTGTDRQILFLDLGTGAVLCSLALPSLPGGPLSASLPTADHRSAFFFWGLHELGSTSETETGEARHSLYMFHPTLPRVLLELANVSTHIVAFDAVLFEPSRHAAYILLTGPADSEAPGLVSVIKHKVRDLVPSSRVVRLGEGGPDSDQAIRDRFSRLRYQSEA [ITFG3] | 57.6 | 57.1 | 0.0404 | 0.275
